Experimental data taken from the supplement of paper PMC9170038.

System: MS2 coat protein
Assay: apparent KD of MS2 coat protein; designed switch direction (-1 OFF switch, 1 ON switch): -1; higher = weaker reporter binding
Procedure, shortened: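 Designed RNA switches sharing common flanks were transcribed on Illumina chips by stalled E. coli RNA polymerase. They were titrated with SNAP-549-labelled MS2 coat protein, from 0.7 or 1.5 nM doubling to 3 µM, in Tris-HCl pH 7.5 buffer with KCl, MgCl2, BSA, DTT, tRNA and Tween-20. Titrations ran without input, with 200 uM small-molecule ligand, or with an oligonucleotide input. The apparent KD of each design is the median over its clusters, after curve-fitting of normalised cluster fluorescence.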

[1] = Eterna round: R95, input ligand: FMN 200 uM
[2] = Eterna round: R95, input ligand: microRNA oligo, concentration not stated
[3] = Eterna round: R95, input ligand: none
[4] = input ligand: microRNA oligo, concentration not stated

AGUACUAACACGGAAGUGUUAGUACAAUAAGCUUGUGUUACAUGAGGAUCACCCAUGUCCUCAUAAGCUCGUCUUAU [Mat - Sensor v3 - Turn-off var 2 - D61] (puzzle: Sensor v3, turn-off variant 2)
apparent KD of MS2 coat protein [1]: 0.113 µM
apparent KD of MS2 coat protein [2]: 0.0124 µM
apparent KD of MS2 coat protein [3]: 0.112 µM

AGUACUAACACGGAAGUGUUAGUACUAUAAGCUUGUGUUACAUGAGGAUCACCCAUGUCCUCAUAAGCUCGUCUUAU [Mat - Sensor v3 - Turn-off var 2 - D69] (puzzle: Sensor v3, turn-off variant 2)
apparent KD of MS2 coat protein [1]: 0.0945 µM
apparent KD of MS2 coat protein [2]: 0.087 µM
apparent KD of MS2 coat protein [3]: 0.0982 µM

AGUACUAUCACGAAAGUGAUAGUACAAUGAGCUUUUGAAACAUGAGGAUCACCCAUGUCCUCGUAAGCUCGUCUUAA [Mat - Sensor v2 - var 2 - Mod - D179] (Eterna round: R96, puzzle: Sensor v2, turn-off variant 2)
apparent KD of MS2 coat protein (input ligand: FMN 200 uM): 0.0257 µM
apparent KD of MS2 coat protein [4]: 0.438 µM
apparent KD of MS2 coat protein (input ligand: none): 0.0286 µM

AGUACUAUCACGAAAGUGAUAGUACGAGGAGCAAGUGGAACAUGAGGAUCACCCAUGUCCUCAUCUGCUCGUCUUAU [salish99-s2-v2-x008] (Eterna round: R96, puzzle: Sensor v2, turn-off variant 2)
apparent KD of MS2 coat protein (input ligand: FMN 200 uM): 0.0135 µM
apparent KD of MS2 coat protein [4]: 0.172 µM
apparent KD of MS2 coat protein (input ligand: none): 0.0163 µM

AGUACUAUGCGAGCUGACUUGCGUAGUGCAGCAGGUGGAACAUGAGGAUCACCCAUGUCCUCAUUUGCUCGUCUUAU [Mat - Sensor v3 - Turn-off var 2 - D4] (puzzle: Sensor v3, turn-off variant 2)
apparent KD of MS2 coat protein [1]: 0.0302 µM
apparent KD of MS2 coat protein [2]: 0.12 µM
apparent KD of MS2 coat protein [3]: 0.0268 µM

AGUAGAUCAGGAUAUACGUGAAAGGUCAAAGUGUCCAAUAUACAUGAGGAUCACCCAUGUAGAAGGGAUCUACA [Ex2 Design 116: Not so Super Stable 3] (Eterna round: R96, puzzle: Exclusion 2)
apparent KD of MS2 coat protein (input ligand: FMN 200 uM): 0.168 µM
apparent KD of MS2 coat protein [4]: 0.0221 µM
apparent KD of MS2 coat protein (input ligand: none): 0.0274 µM

AGUAGGUCUACCUUGGUGGAUCUGCAUUUAUGCAAGUGUACAUGAGGAUCACCCAUGUCCUCAUUUGCUCGUCUUAU [JL turnoff v2 99.26] (puzzle: Sensor v3, turn-off variant 2)
apparent KD of MS2 coat protein [1]: 0.095 µM
apparent KD of MS2 coat protein [2]: 0.432 µM
apparent KD of MS2 coat protein [3]: 0.103 µM

AGUAGUUGUUUCCGUUCUUACAUGAGGAUCACCCAUGUUUCUUGUCGUGCACGCGAUGCUCGUCAGACUACCAGAUG [salish99_TOv1_r3_058] (puzzle: Sensor v3, turn-off variant 1)
apparent KD of MS2 coat protein [1]: 0.0525 µM
apparent KD of MS2 coat protein [2]: 0.0699 µM
apparent KD of MS2 coat protein [3]: 0.0619 µM

AGUAUGUCAGGAUAUCUCGGGUAGCCCACAAGGACUACCGAAGAGAAGGGACAUGAGGAUCACCCAUGUACCAU [EX4 B.24] (Eterna round: R97, puzzle: Exclusion 4)
apparent KD of MS2 coat protein (input ligand: FMN 200 uM): 0.0199 µM
apparent KD of MS2 coat protein (input ligand: none): 0.0214 µM

AGUCAGGCGGUAGGAUAUCCAAAUCGAGUGACCCUCUCAUAACAUGAGGAUCACCCAUGUCGGUGGGAGAAGGGCCGUAAGGCA [Mat - Exclusion NG 2 - Mod of JL - D64] (Eterna round: R96, puzzle: Exclusion NG 2)
apparent KD of MS2 coat protein (input ligand: FMN 200 uM): 0.033 µM
apparent KD of MS2 coat protein [4]: 0.0164 µM
apparent KD of MS2 coat protein (input ligand: none): 0.0309 µM

AGUCGGCGAGGAUAUACAUGAGGAUCACCCAUGUGAUAUAGUGCACGCGUACGUGUACGUAGAAGGCGCUGACA [Mat - Exclusion 3 - Mod of JL D93] (puzzle: Exclusion 3)
apparent KD of MS2 coat protein [2]: 0.0115 µM

AGUGCAUGAGGAUAUGCAAAUCGAAAGACGCAAGGGCAAUCACAUGAGGAUCACCCAUGUAGAAGGCGUCGCAC [Eternabot (Original) Solution 17] (Eterna round: R97, puzzle: Exclusion 2)
apparent KD of MS2 coat protein (input ligand: FMN 200 uM): 0.0307 µM
apparent KD of MS2 coat protein (input ligand: none): 0.0319 µM

AGUGCGUAUGUGAGGAUAUGCUGGUCCUUGGAUCAGCAGAAGGCACAUGAGGAUCACCCAUGUGGUGUCGUACU [salish99_Bmod_Ex4_005] (puzzle: Brourd's mod of Exclusion 4)
apparent KD of MS2 coat protein [2]: 0.19 µM

AGUGCGUAUGUGAGGAUAUGCUGGUCCUUGGAUCGGCAGAAGGCACAUGAGGAUCACCCAUGUGGUGUCGUACG [salish99_Bmod_ex4_077] (puzzle: Brourd's mod of Exclusion 4)
apparent KD of MS2 coat protein [1]: 0.203 µM
apparent KD of MS2 coat protein [2]: 0.0586 µM
apparent KD of MS2 coat protein [3]: 0.0892 µM

AGUGUGUGGCAGGAUAUUCUAAUCUUGAGGAGGGAAGAAGGGUCUACAUGAGGAUCACCCAUGUAAGCGGUUGA [Ex6 #41] (Eterna round: R97, puzzle: Exclusion 6)
apparent KD of MS2 coat protein (input ligand: FMN 200 uM): 0.142 µM
apparent KD of MS2 coat protein (input ligand: none): 0.0336 µM

AGUGUGUGGCAGGAUAUUCUGUUGAUUAGGACAGAAGAAGGGUCUACAUGAGGAUCACCCAUGUAAGCGGUUGA [Ex6 #36] (Eterna round: R97, puzzle: Exclusion 6)
apparent KD of MS2 coat protein (input ligand: FMN 200 uM): 0.275 µM
apparent KD of MS2 coat protein (input ligand: none): 0.268 µM

AGUUCUAACACGAAAGUGUUAGUACAAUAAGCUUGUGAAACAUGAGGAUCACCCAUGUCCUCAUAAGCUCGUCUUAU [salish99_TOv2_r3_013] (puzzle: Sensor v3, turn-off variant 2)
apparent KD of MS2 coat protein [1]: 0.0154 µM
apparent KD of MS2 coat protein [2]: 0.667 µM
apparent KD of MS2 coat protein [3]: 0.0147 µM

AGUUGGCGAGGAUAUACAUGAGGAUCACCCAUGUAUGAGAUACGAGUAAGGUAAAUAUGUAGAAGGCGCUGACA [JR_Ex3_Sub077] (Eterna round: R97, puzzle: Exclusion 3)
apparent KD of MS2 coat protein (input ligand: FMN 200 uM): 0.052 µM
apparent KD of MS2 coat protein (input ligand: none): 0.0168 µM

AGUUGGCGAGGAUAUACAUGAGGAUCACCCAUGUGAAAUAGAAGAGUGAGGAAGAAAAGUAGAAGGCGCUGACA [Mat - Exclusion 3 - Mod of Salish D40] (puzzle: Exclusion 3)
apparent KD of MS2 coat protein [1]: 0.134 µM
apparent KD of MS2 coat protein [2]: 0.069 µM
apparent KD of MS2 coat protein [3]: 0.107 µM

AGUUGGCGAGGAUAUACAUGAGGAUCACCCAUGUGAAAUCGAGAAAAAAUAGGGAAAAGUAGAAGGCGCAGACA [Ruby 63] (Eterna round: R96, puzzle: Exclusion 3)
apparent KD of MS2 coat protein (input ligand: FMN 200 uM): 0.0282 µM
apparent KD of MS2 coat protein [4]: 0.0243 µM
apparent KD of MS2 coat protein (input ligand: none): 0.0287 µM

AGUUGGCGAGGAUAUACAUGAGGAUCACCCAUGUGAGGGAUACUAGUGAGGUCGAUUAGUAGAAGGCGCUGACA [Mat X3R4 m9] (Eterna round: R97, puzzle: Exclusion 3)
apparent KD of MS2 coat protein (input ligand: FMN 200 uM): 0.839 µM
apparent KD of MS2 coat protein (input ligand: none): 0.0561 µM

AGUUGGCGAGGAUAUACAUGAGGAUCACCCAUGUGGUCCUGCGAUGGUGUCGCCCUUUGUAGAAGGCGCGGGUA [salish99_ex3_r4_055] (Eterna round: R97, puzzle: Exclusion 3)
apparent KD of MS2 coat protein (input ligand: FMN 200 uM): 0.0407 µM
apparent KD of MS2 coat protein (input ligand: none): 0.0388 µM
